Patent US20250353884A1

Target: T1, Chim^C::mCH
T1 sequence: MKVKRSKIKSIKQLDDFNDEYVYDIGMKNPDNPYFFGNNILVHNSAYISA
Assay: cell-based or functional assay

B1: mTQ::Chim^N (protein, not shown: large carriers)
chain: SETGDTIHKTNWGELTVEELFNRGTRYWSEDNSKEYSANDELKVLTFDPVKDEAYYGNINYIYRHKVSKEQWEIEDEAGNTIRVTGDHSIMIERDGQLMDVKPRDMLDTDVLIVVDHN
Which Kapp of the PTS reaction, pH 6.0 does the source give for B1 here?
Its Kapp of the PTS reaction, pH 6.0 is 0.0107 s⁻¹.

What about the Kapp of the PTS reaction, pH 6.5 of the same binder?
Its Kapp of the PTS reaction, pH 6.5 is 0.00807 s⁻¹.

What about the Kapp of the PTS reaction, pH 7.0 of the same binder?
The Kapp of the PTS reaction, pH 7.0 was 0.00724 s⁻¹.
